Values quoted from earlier work, collected in publication PMC2712931.
pKd: −log10 of the molar value.

Molecular target: Pex5 (UniProt P50542)

Question: With Pex14 (from UniProt O75381) as the substance, how does the pKd read?
Answer: Its pKd is 5.56.
